Assay: label from the status in PepcDB records

Sequence	protein production
LEYSNIPITDNNKVKLIKSGREKFEDLFEAIRGAKHHIHLEYFNFRNDSIANALFDLLGEKVKEGVKVRAMFDAFGNWSNNKPLKKRHLKAIREKGIEIVKFDPFKFPYINHAAHRDHRKIAVIDGKIGYTGGMNIADYYINGLPKIGTWRDMHIRIEGDAVNILQEIFLDIWNKTTKQNIVGEEYFPNHPERADSCNTVISIVDRTPKRNSRMLSHT	failed
LFQIVEQSFGRPLSPYEIETLNQWIDVDHHDLSVIQAALDEALSQNKLSFKYIDRILLNWKKNNVKTVDDSKK	not failed
LFYDSEQDKEQSNPYMVLDIDKLFHVRPVTQTDVYRADAKEIPRIFQILYANEGESKKEQEFPVEPVGEKSNYICHKGHEFIPTLYHFPTNCEACMKPLWHMFKPPPALECRRCHIKCHKDHMDKKEEIIAPCKVYYDISTAKNLLLLANSTEEQQKWVSRLV	failed
LKMLRDMTGLPHNRKCFDCDQRGPTYVNMTVGSFVCTSCSGSLRGLNPPHRVKSISMTTFTQQEIEFLQKHGNEVCKQIWLGLFDDRSSAIPDFRDPQKVKEFLQEKYEKKRWYVPPEQAK	not failed
LKPERVITKNSGASLIDLGDDVALLEFHSPNNSIGFDVVQMINKAVDEVEANYKGLVIGNQGKNFCVGANLMMILMEAQDDNFFEIDMVVRQFQQAMAKIRYSQKPVVSAPFAMTLGGGTEICLPTASIQASLETYMGLVEVGVGVIPGGGGNKELYLRHLERLPEGANIDLQSIANKTFETIAMAKVSTSAHEAMENGFLSERDGVVVNGDHLLYQAKQQVIHLHDAG	failed
LKPLSIIYNGKSGFHASDKEGVYEQIMTLFTRYDFEIQVFELNEKITFDELMEQVLLRHLNLNTSEYKGVIVAAGGDGTLNAVASRLVDTPIPMGILPLGTFNYVARVLNIPLDLLAAAEVIADGTIRSVHVATINDRIYLNNASLG	failed
LLPKYNILTEDQVQKIHENTMKILEEIGIEFEYEPALEVFRREGQKVEGKRVYLTREFVESKLKSAPAEFTLHARNPENNVVIGGDNIVFMPGYGAPFIYELDGSRRKTTLQDYENFAKLAGASKNMHLSGGTMAEPQDIPDGVRHLQMLYSSIKNSDKCFMGSAEGKERAEDSVEIAAILFGGKDVIKEKPVLVSLINSLTPLKYDERMLGALMAYAEAGQAVIIASLVMAGSTGPASLAGTLSLQNAEVLAGISLAQSINPGTPVIYGSTSALSDMRSGSLSIGSPECALFISASAQLARFYGVPSRSGGGLNDSKTVDAQAGYESMMTLMAANLTGVNFVLHTAGILQYFMAMSYEKFIMDDEIAGMLLHYMKGYTFDEDGMAFDVIEKVGPGGHFLTQKHTRKNHKREFYTPTLSDRSAYDTWAKEKLETKQRAHARWQQILANYVPPALDPEIDAKLQAFIAQRGKEVGEE	not failed
LMLACMNMARKKTGALIAIQQGIDLTPFAHTGEVFRAEVNARLVENIFFKNSPLHDGAMVIADNSIIAAGCILPVAYNTDLNKDLGLRHRSALGLSQETDAKIIIISEERGRISFAYRGEIHQDITTDELQLLLED	failed
LNIAQKGREGRKIGTAFVMGDVEEVMSRSSQLVINPYHGHKEADRDIKNPENWESVMEFAQIDGVFVLDENGIIIACGRYIEASAKDLVSKIKRGLGGRHIACASITKETKAIAVVVSESGGDITVYKDGVEVMHIPSLLF	failed
LNLPYDEHADAWTQVKKALAAGKRTHKPTLLVFGANWCTDCRALDKSLRNQKNTALIAKHFEVVKIDVGNFDRNLELSQAYGDPIQDGIPAVVVVNSDGKVRYTTKGGELANARKMSDQGIYDFFAKITE	not failed
LNSAPTPRDVVANAPAPVQAAVAGAQEYAAQAGLNTEELAVDALYNAIKVRLAGTGLGIPPQIEAFYQANRTNFNGFYMANRGAIDFIFSM	not failed
LPLCDSLIIWLQTFKTASPCQDVKQLTNGVTMAQVLHQIDVAWFSESWLSRIKDDVGDNWRIKASNLKKVLHGITSYYHEFLGQQISEELIPDLNQITECADPVELGRLLQLILGCAVNCEKKQEHIKNIMTLEESVQHVVMTAIQELMSK	not failed
LPSDVTEGKTVFIRNLSFDSEEEALGEVLQQFGDLKYVRVVLHPDTEHSKGCAFAQFMTQEAAQKCLAAASLEAEGGGLKLDGRQLKVDLAVTRDEAA	not failed
LQPNMRTRVCTVINNNIAHEWTLARIASELLMSPSLLKKKLREEETSYSQLLTECRMQRALQLIVIHGFSIKRVAVSCGYHSVSYFIYVFRNYYGMTPTEYQERSAQRLSNRDSAAS	not failed
LRLSCFIDQPTGLFNRSRLQEDIHEALASSVDYQLVVVDMITSAFLNDIVKALGYDFSQDLVTAIKERIESLLPRTCSLYKVGPTRFGFLLPGDRPPEHLFRTILEDFETPVECRGIPVQMQVGLGVVTLNRDPNEEQDWMRMVISAADDARDRDLGWA	failed
LSENTTPFGSVSQHDTQVNCQLQLNAANHLIVNEQTRNCFEYFLTQYGEKSLTQIDQDIKNYFTQSLPQPARDQAQDLWQRYLKYREELGNLKEPAIAKTDIAYYRAVFTSRQMLRQRFFSATEIAGLFGSEDIYNQYTLERMAILNNSKLSEIEKAKQLKALFDQLPQDWKANLEQLSKLDDLKQLTTSIKKNGGSAQELHDMRTNLVGHDATARLEQLDVERSNWKSNVTQYLDERQTILNSNMSDTAKQNAISALRSKNFTAPQDQIRVQAFESAKDQ	failed
LTEAVSLMEANIEEPLSTDDIAYYVGVSRRQLERLFKQYLGTVPSKYYLELRLNRARQLLQQTSKSIVQIGLACGFSSGPHFSSTYRNHFNITPREERAQ	not failed
LTTEGGKALVDFAVKRNLQYIHFDAGWYGFEYDKVSDATTVTLDPRRNPDINALNLKEVVAYAKERGIGVILYVNQRALQQQLDEILPLYKSWGIAGIKFGFVQVGSQVWTKWMHEAIKKCADYGLMVDVHDEYRPTGFSRTYPNLM	failed
LVPLESDLSRAADLLNAGRKVAILAGRGALEAKEALRETAELLGAPVAKALLGKAVLPDDDPLTTGGIGILGTAPSQEIMQQCDTLLIIGSTFPYIEYYPRPNTAAGIQIDHDPQRIGLRYPVEVGLVGEAGETLRMLNKRLKRKQDRSFLERAQEQTRNWRRELRAMEGDRS	failed
MAAAAAGPASSQRLFQSFSDALIDGDPQAALEELTKALEQNPDDAQYYCQRAYCHILLGKYRDGIADVKKSLELNPNNCTALLRKGICEYHEKDYASALETFAEGQKLDSTDTNFDTWIKRCQEIQNGSESEVSASQRTQSKIKYDWYQTESHVIITLMIKSVQKNDVRVGFSERELSALVKIPAGEDYSLKLRLLHPIIPEQSTFKVLSTKIEIKMKKPEAVRWEKLEGQGDEPTPKQFTADVKNMYPSSSHYTRNWDKLVGEIKEEEKNEKLEGDAALNKLFQQIYSDGSDEVKRAMNKSFMESGGTVLSTNWSDVGKRKVEINPPDDMEWKQY	failed
MAAAALREQLNALLSSMFASGLVDEQFQQLQMLQEDGGTPGFVAEVVTLFCDDADRIISELAALLDQPIVDFDKVDAYVHQLKGSSASVGAQKVKFTCMQFRQLCQDKNRDGCIMALAVVRNEFYDLRNKFQTMLQLEQQIQAQQ	not failed
MAAAVPQRAWTVEQLRSEQLPKKDIIKFLQEHGSDSFLAEHKLLGNIKNVAKTANKDHLVTAYNHLFETK	not failed
MAADGIFRSIFEGCISGLDSAIERRPYHKNCGCALHDKSSGAGKNQNQRRPPSCRRHGSSESISFPIRRSWSEGNIMAMNLFSSSSSSSNLQSLSSSSSLSNLASDLPVDNAATEEPSRSNKQLRWTIDEGEDD	failed
MAADHTDVLIVGAGPTGLFAGFYVGMRGLSFRFVDPLPEPGGQLTALYPEKYIYDVAGFPKVYAKDLVKGLVEQVAPFNPVYSLGERAETLEREGDLFKVTTSQGNAYTAKAVIIAAGVGAFEPRRIGAPGEREFEGRGVYYAVKSKAEFQGKRVLIVGGGDSAVDWALNLLDTARRITLIHRRPQFRAHEASVKELMKAHEEGRLEVLTPYELRRVEGDERVRWAVVFHNQTQEELALEVDAVLILAGYITKLGPLANWGLALEKNKIKVDTTMATSIPGVYACGDIVTYPGKLPLIVLGFGEAAIAANHAAAYANPALKVNPGHSSEKAAPGT	not failed
MAAGAAEAAVAAVEEVGSAGQFEELLRLKAKSLLVVHFWAPWAPQCAQMNEVMAELAKELPQVSFVKLEAEGVPEVSEKYEISSVPTFLFFKNSQKIDRLDGAHAPELTKKVQRHAS	not failed
MAAGRHCRAPHRCQTHPRLIALGHNHRMNAQLTQELPEFPTWLNARPSTLQEHRGRALVLAFVNASSVWCAERLAELAHWQARSPGRLQVIVVQVPRFDSERLPQRSLKQLRGHGVSAPILLDKDWETWRRFGIESWPTLVLLDAYGRERQRLVGVTGDLDKALTALCEGQPPPSDADLHGVAEREPEPHLALRFPTGLAATEDRLYVADTGHHRVLECTHSGRVLRQFGHGNADLIDGGVGEAAFRRPQGLALERDQLYVADTGNHALRRINLRSGQVDTLCGTGRSGEPVEGPLASPGGSALNYPQGLAIADNQVLIAMAGDNRIWSYHLGRAALTARAGTGALEIRDGSGHLAAFAQPAGLASVQQVAYVCDGLGSSIRTMQLRGDLVQTLVGGQGTWQFGDQDGPRSTARLQFPQAIALAADSPLLWIADTGNGRLRCLRLGGGELTTVALPRRLHGPAGLAVAAGAVWIAETDAHAILRYDLASGALSDVSIDE	failed
MAAGSLLTLLDDIATLLDDVALATKKTAGVLGDDLALNAQQVTGVSADRELPVVWAVAKGSLLNKAILVPAALLISAFAPWAILPLLMIGGAFLCFEGFEKIAHKWLHPEAGEEHDQRKQAATDASVDMVAFEKERIKGAIRTDFILSAEIIVLALGVVSARPFMDQVGVLVIVAVLITVGVYGLVAGIVKLDDLGLHLKRTASSVAQTIGSALLWLAPVLMKVLSIVGTAAMFMVGGGILVHGLPFAHHWADGVTEAASAAVGGLSMIVPTLIDAIAGIIAGAVLVLIVTLVGKVWKAARE	not failed
MAAGTDSTGTFATRHSANECLQLQERLWLLEQIAGSASRTALRTTVARGNECRLASCIDLNPEGRPILPSCSALGRAGAAARCCAGRRGRSRARARPAGQTGGGSRVAAECRHISHRGGRGIPVSGGGGAWRSGGASNGRGVFLRPAGTGGSRLATGARQANLGCGPRPACPPAMDQDYERRLLRQIIIQNENTVPCVSEMRRTLTPANSPVSSPSKHGDRFIPSRAGANWSVNFHRINENEKSPSQNRKAKDATSDNGKDGLAYSALLKNELLGAGIEKVQDPQTEDRRLQPSTPEHKGLFTYSLSSKRSSPDDGNDVSPYSLSPVSNKSQKLLRSPRKPTRKISKIPFKVLDAPELQDDFYLNLVDWSSLNVLSVGLGTCVYLWSACTSQVTRLCDLSVEGDSVTSVGWSERGNLVAVGTHKGFVQIWDAAAGKKLSVLEGHTARVGALAWNADQLSSGSRDRMILQRDIRTPALQSERRLQGHRQEVCGLKWSTDHQLLASGGNDNKLLVWNHSSLSPVQQYTEHLAAVKAIAWSPHQHGLLASGGGTADRCIRFWNTLTGQPLQCIDTGSQVCNLAWSKHANELVSTHGYSQNQILVWKYPSLTQVAKLTGHSYRVLYLAMSPDGEAIVTGAGDETLRFWNVFSKTRSTKESVSVLNLFTRIR	failed
